The text below walks through data of patent US20180271973A1.

The term Kd denotes a measure of binding affinity in units of concentration. The low end stands for higher affinity, the high end for lower affinity.

In this assay the target is CH505 transmitted/founder (T/F) Env gp120 (HIV-1). The experiment in a line: surface plasmon resonance. In general terms: In SPR one partner is held on a chip, and binding of the other changes the refractive index at the surface.

“CH103 UCA (unmutated common ancestor of the CH103 CD4 binding site bnAb lineage) (antibody)” had a Kd of 200 nM.
